Reference: the supplement of paper PMC12764529
± gives the half width of the 95% confidence interval.

Assay: folding stability dG unfold from chymotrypsin proteolysis; higher = more stable
Summary of the method: (§1)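 K50 was inferred by Bayesian fitting of sequencing counts obtained after protease digestion of designed mini-proteins. Unfolding free energy was derived by comparison with a sequence-predicted unfolded-state K50 and a shared folded-state K50, for each protease or both combined. The mini-proteins were under 80 residues, had no cysteine, were carried in a PA-tagged cDNA display construct, and were kept only if AlphaFold2 dimer inter-PAE exceeded 15.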

Sequence	folding stability dG unfold
SAGMSMSVSVTKDPNSNSITIKVTMPVEPDAVLDLPIKVEVPEKEYEMTVEVTLSPDGLASMTGTITLPSAG [r5_596_JUSTAS]	2.04 ± 0.056 kcal/mol
SIKLSNGETIEYEPSPNKTYTIKHPDGRVVKILKVEREKDKYTVEIQFDDGSTKTIEIPPDKPEIIEKELLS [r1_66_JUSTAS]	0.951 ± 0.08 kcal/mol
SAGGSAGGSSTTPVTITVPESILDEIKKKAEELGIKVEVEIKESPENKKYATVTIEIPENVELSAGGSAGGS [r12_653_JUSTAS]	-0.248 ± 0.25 kcal/mol
SAGGGGSMTIVVPVEVSPETSEEEVRKRAEEIARPIAEELGKKVSIEVSREEDPEGGRRWTATITILSAGGS [r16_279_JUSTAS]	2.6 ± 0.017 kcal/mol
SAGGSAGGSAGGMLILVEVNGEKRLLEADSLEDALAKLPPGATVTRVEIFEVEEVELPESAGGSAGGSAGGS [r10_13_TrROS_Hall]	2 ± 0.059 kcal/mol
SAGGSKTIEVEIKVPPGMTPEEVAKKLAEELKKAGIEVKVVKVEYDEEKGTVRITLDDGSEVELKVSAGGSA [r2_242_TrROS_Hall]	1.98 ± 0.1 kcal/mol
SAGGSAGGSAGGPEVTLRLRLEVEVRVVVLKDGKLEEKTFRFELEVEVRFEPGMSLEELSAGGSAGGSAGGS [r10_633_TrROS_Hall]	4.09 ± 0.086 kcal/mol
SAGGMPLDSPEVQRRLAALKEALAKAEALREAGLEVKVVSIEFDPETREVTIEVEVRPAPPPPPEEPSAGGS [r8_277_TrROS_Hall]	1.77 ± 0.083 kcal/mol
SMNPIGNPITLPDGTTITIIPDLGLILIYDPETGTFIARLILVDENGIPHIFPFIGKIDPETGEIIEIDPSA [r9_122_TrMRF]	4.13 ± 0.062 kcal/mol
SAGGGANIEGVEIYRIPDLDKYLVVVPSPAPEGAEITITVRLPNGPFTKTFVAKYRPLPGNRHVFVGSAGGS [r8_195_TrMRF]	0.789 ± 0.15 kcal/mol
SGKKKIKIYVESIEVFEDGVVKIKVKAIFPDGSEEDVIAEIRVEPDEDGRPHLLVVIRIGDKDFLLVLDASA [r9_271_TrMRF]	3.15 ± 0.059 kcal/mol
SGPAEGFEAELVEEYTLPETERVFVYRVTHPDGTEYVLVVVRNPDGTWEPVFVYRPDDPDALREALELLGSA [r9_1069_TrMRF]	3.595 ± 0.022 kcal/mol
SAGPKNREIKVRIQFNGNWVEYKMPDNDLKELVKNGGLQIAGVDPEKDEIMIQIPVPPPKPDPEDGKPKSAG [r5_868_TrROS]	1.23 ± 0.083 kcal/mol
SAGGSAGGSGSLEKVFTGENKIITIKYLPDGKVIITLHDPSTPKPIAVIEAKPSEIEEILKKESAGGSAGGS [r20_129_TrMRF]	1.86 ± 0.076 kcal/mol
MKTITITVTDAPPGTVTIRVEIEREDGSTIEIEKEITVKPGDTITITLKEDEPYKIKKIEIYHNGKKIEITS [r1_70_TrROS_Hall]	3.81 ± 0.1 kcal/mol
SAGGSMVKVEVHYDPERDLVLVTVEAPDDPELVDEFVERMKKLGAKRVEVFRFPEDGKVRILVEIGSAGGSA [r2_358_TrMRF]	4.68 ± 0.081 kcal/mol
SAGGSAGGSMIEVVKFPNGITLEYFPETNTYRAFNPSTNTTTTFPPGVSFEEAVEAVKKGNLVSAGGSAGGS [r12_832_JUSTAS]	3.82 ± 0.017 kcal/mol
SAGGSSKLTFKDPNSDGTYSVTYDPSTGKANVTTSNGSSATISFEGDTITLLESSSVPPSPSNPTTSSAGGS [r16_687_JUSTAS]	0.252 ± 0.093 kcal/mol
SAGGSAMGMRPVRREFTGSGMRITVEVVESTSIPTAEIRVLDPEGRLLRERRLPAEEVEREIARLLSAGGSA [r15_940_JUSTAS]	1.58 ± 0.092 kcal/mol
SKLPPGQPYRRVEMTITFDFKSPKELRKKIRELFGKIEVDMKHNPEDNWYTIDIWFPSPAVMDELKELIFSA [r9_764_TrROS]	3.29 ± 0.061 kcal/mol
SAGPPVLALFTGSPEDVQELLDRLPPDFEVEVGRLPDLYVARFPPDVPPGTVLLPGADGRPAVVEVVEASAG [r5_123_TrMRF]	1.68 ± 0.037 kcal/mol

Assay: folding stability dG unfold (combined trypsin and chymotrypsin); higher = more stable
Summary of the method: as §1

Sequence	folding stability dG unfold
SASSFPPGSTATLTVRVTDPAGTATTTLTIPLSVDPSTGKAVSLEEVYEILKELGVDPANVTITSLTVSSAG [r14_93_JUSTAS]	3.07 ± 0.08 kcal/mol
SAGGSAGGKILVIEIEVDSPEKAVEKAKEIVKELGLPESVKIKEIVFFKEEGDKYRALVLVDLDSAGGSAGG [r6_282_TrMRF]	3.95 ± 0.2 kcal/mol
SAGGSAGGSSLKPGQELELTLTLRVEVEVEVYENGKPVERYRVEREVRLTLRLKLPAASLEDLSAGGSAGGS [r20_14_TrROS_Hall]	5.55 ± 0.15 kcal/mol
SAGGSASLQTSTASVSPGALEKAIEAAKAAPPGTAVSVSFGDPVVGTPRPVTLTVDSAGNLVEITGSAGGSA [r15_228_JUSTAS]	0.188 ± 0.097 kcal/mol
SMEITLLSTDPTPGGMTTALWETPNRKVTIFKPPSENYYIVTVEIPGTGKTKTLRFPKNVSPEEIVKKLGSA [r9_522_JUSTAS]	1.78 ± 0.074 kcal/mol
SPQNLVRIAEIKVELKLDGKKYIITIEVYRPPDSDEVIVRVKVIDPSSDKSSPELEKIAKELEKKIEEELKS [r1_229_JUSTAS]	3.54 ± 0.18 kcal/mol
SAGGSAGGWFYIMFPIPPGYKVEAEWKFPNGPKVKSEIHPDGPIMITIPPGMANMPDFEIKIEPSAGGSAGG [r6_237_TrROS]	3.2 ± 0.15 kcal/mol
STLLEEAKAQAEAYLKAAGLELAPGDVVTLTVPYPGPLTLEITVHPGEKKLEITATDASTPTTHTLTFDESA [r9_426_JUSTAS]	1.03 ± 0.079 kcal/mol
SAGGSLPPGQWIFMIQLEIEPPNGNTWPFNIMVPPDNVEEQAKEIADRLRENGLKVKIEITDVMPVSAGGSA [r2_274_TrROS]	3.09 ± 0.13 kcal/mol
SAGGSASLEEVIESVTKPLGAKGEIDPETGVTYVQDPSGENLTLETEDGRPLKVTYEPEGKWTAVESAGGSA [r15_256_JUSTAS]	0.24 ± 0.28 kcal/mol
SAGGSAGGPEITIIIGNAGPIEVALKTAKEIKKILEEKGYPNVKIPILIIPFGSPEKLKEALGGSAGGSAGG [r6_476_TrMRF]	0.383 ± 0.29 kcal/mol
SAGGSAGGSNPRYRIVLPISREQLEELGLTPEQVAEAIREAFPSLSPDTRFYFPEDGNLVVVGSAGGSAGGS [r12_50_TrMRF]	1.4 ± 0.026 kcal/mol
SAGKTIVVPTEEEAEKLAKELAEETGKEVEIVKVEKEKKKDGYEVYTIKVKLKDNNKTIEIKIVRPKEKSAG [r5_173_TrROS_Hall]	1.55 ± 0.25 kcal/mol
SAGGSAGGSTIDITLPDLDEEEIREYLKELFPDVEVTIEYDPSTNTYTLKVGGDEVVVTRLPPNSAGGSAGG [r6_609_JUSTAS]	3.43 ± 0.057 kcal/mol
SAGGEEVILTLPDGSPVRVIPDEGTASFELPGYRVETEVLPDGRIRLTVRDPAAGALVRELDLGLLRSAGGS [r16_760_JUSTAS]	0.623 ± 0.039 kcal/mol
SAGGSAGGSKTVYRITIYNEKTGKKLVIEIEESMSEEEKEQKIKDLLKKLLPPGAKIKIEKVPSAGGSAGGS [r20_213_TrROS_Hall]	4.08 ± 0.25 kcal/mol
SALPPGTTVTYTFYDPATGALVTVTVTTLPDGTVRVTLTVYDPSTGETTTVTFTVDGATLDELLDFIRAGSA [r9_618_TrMRF]	5.37 ± 0.32 kcal/mol
SAGGSSITVPYPEGYEITVEVFPNYATITTKTPSSTLTKTVSFSTPVTVKTPSDKPVTINVPSPEVSAGGSA [r2_57_JUSTAS]	0.436 ± 0.18 kcal/mol
SAGGVVYYATFTIYDPKRKLPNGELAYEETPIYKKFDPKEIEKFIKELKDKLKKEGRKIKAEITKVLSAGGS [r8_10_JUSTAS]	1.45 ± 0.4 kcal/mol
SAGQTITFELKDPDITPEELQKKLQKRFGMKPMNIKPVEPDPDGWRFVIEFPENGGTRTFPWEEIRELISAG [r5_550_TrROS]	1.03 ± 0.13 kcal/mol
SAGGSAGGSAVVSVSPDGYLRLAYYPETGELRELPPDVSVEEFLEAFPDVVVLAAPVAPTPESAGGSAGGSA [r18_53_TrMRF]	1.41 ± 0.048 kcal/mol

Sequence	folding stability dG unfold
SAGMSMSVSVTKDPNSNSITIKVTMPVEPDAVLDLPIKVEVPEKEYEMTVEVTLSPDGLASMTGTITLPSAG [r5_596_JUSTAS]	2.41 ± 0.18 kcal/mol
SIKLSNGETIEYEPSPNKTYTIKHPDGRVVKILKVEREKDKYTVEIQFDDGSTKTIEIPPDKPEIIEKELLS [r1_66_JUSTAS]	1.24 ± 0.12 kcal/mol
SAGGSAGGSSTTPVTITVPESILDEIKKKAEELGIKVEVEIKESPENKKYATVTIEIPENVELSAGGSAGGS [r12_653_JUSTAS]	0.509 ± 0.14 kcal/mol
SAGGGGSMTIVVPVEVSPETSEEEVRKRAEEIARPIAEELGKKVSIEVSREEDPEGGRRWTATITILSAGGS [r16_279_JUSTAS]	2.71 ± 0.046 kcal/mol
SAGGSAGGSAGGMLILVEVNGEKRLLEADSLEDALAKLPPGATVTRVEIFEVEEVELPESAGGSAGGSAGGS [r10_13_TrROS_Hall]	2.15 ± 0.068 kcal/mol
SAGGSKTIEVEIKVPPGMTPEEVAKKLAEELKKAGIEVKVVKVEYDEEKGTVRITLDDGSEVELKVSAGGSA [r2_242_TrROS_Hall]	1.58 ± 0.39 kcal/mol
SAGGSAGGSAGGPEVTLRLRLEVEVRVVVLKDGKLEEKTFRFELEVEVRFEPGMSLEELSAGGSAGGSAGGS [r10_633_TrROS_Hall]	3.91 ± 0.075 kcal/mol
SAGGMPLDSPEVQRRLAALKEALAKAEALREAGLEVKVVSIEFDPETREVTIEVEVRPAPPPPPEEPSAGGS [r8_277_TrROS_Hall]	1.92 ± 0.12 kcal/mol
SMNPIGNPITLPDGTTITIIPDLGLILIYDPETGTFIARLILVDENGIPHIFPFIGKIDPETGEIIEIDPSA [r9_122_TrMRF]	3.87 ± 0.069 kcal/mol
SAGGGANIEGVEIYRIPDLDKYLVVVPSPAPEGAEITITVRLPNGPFTKTFVAKYRPLPGNRHVFVGSAGGS [r8_195_TrMRF]	1.03 ± 0.12 kcal/mol
SGKKKIKIYVESIEVFEDGVVKIKVKAIFPDGSEEDVIAEIRVEPDEDGRPHLLVVIRIGDKDFLLVLDASA [r9_271_TrMRF]	2.96 ± 0.17 kcal/mol
SGPAEGFEAELVEEYTLPETERVFVYRVTHPDGTEYVLVVVRNPDGTWEPVFVYRPDDPDALREALELLGSA [r9_1069_TrMRF]	3.47 ± 0.057 kcal/mol
SAGPKNREIKVRIQFNGNWVEYKMPDNDLKELVKNGGLQIAGVDPEKDEIMIQIPVPPPKPDPEDGKPKSAG [r5_868_TrROS]	0.773 ± 0.15 kcal/mol
SAGGSAGGSGSLEKVFTGENKIITIKYLPDGKVIITLHDPSTPKPIAVIEAKPSEIEEILKKESAGGSAGGS [r20_129_TrMRF]	1.76 ± 0.13 kcal/mol
MKTITITVTDAPPGTVTIRVEIEREDGSTIEIEKEITVKPGDTITITLKEDEPYKIKKIEIYHNGKKIEITS [r1_70_TrROS_Hall]	3.76 ± 0.33 kcal/mol
SAGGSMVKVEVHYDPERDLVLVTVEAPDDPELVDEFVERMKKLGAKRVEVFRFPEDGKVRILVEIGSAGGSA [r2_358_TrMRF]	4.36 ± 0.1 kcal/mol
SAGGSAGGSMIEVVKFPNGITLEYFPETNTYRAFNPSTNTTTTFPPGVSFEEAVEAVKKGNLVSAGGSAGGS [r12_832_JUSTAS]	3.88 ± 0.041 kcal/mol
SAGGSSKLTFKDPNSDGTYSVTYDPSTGKANVTTSNGSSATISFEGDTITLLESSSVPPSPSNPTTSSAGGS [r16_687_JUSTAS]	0.243 ± 0.09 kcal/mol
SAGGSAMGMRPVRREFTGSGMRITVEVVESTSIPTAEIRVLDPEGRLLRERRLPAEEVEREIARLLSAGGSA [r15_940_JUSTAS]	1.55 ± 0.096 kcal/mol
SKLPPGQPYRRVEMTITFDFKSPKELRKKIRELFGKIEVDMKHNPEDNWYTIDIWFPSPAVMDELKELIFSA [r9_764_TrROS]	3.07 ± 0.23 kcal/mol
SAGPPVLALFTGSPEDVQELLDRLPPDFEVEVGRLPDLYVARFPPDVPPGTVLLPGADGRPAVVEVVEASAG [r5_123_TrMRF]	1.14 ± 0.12 kcal/mol
